Results on two molecules are retold here after patent publication US20230061378A1 (SUZHOU ALPHAMAB, published 2023).

For experiment [1], the target named is T1, pertussis toxin (PT) (Bordetella pertussis, UniProt P04977 35-269; P04978 28-226; P04979 29-227; P0A3R5 43-152; P04981 35-133). As to the kind of experiment: BLI in-tandem binning on PT-biotin; competitor (Ab1, bound first): 1B7.
In experiment [2] the target is T1, pertussis toxin (PT). The experiment is described as follows: cell-based or functional assay.
In experiment [3] the target is T1, pertussis toxin (PT). The experiment is described as follows: BLI, antibody on AHC biosensor, PTpuri 6.25-100 nM in solution.
Experiment [4] concerns the target T1, pertussis toxin (PT). The experiment is described as follows: BLI in-tandem binning on PT-biotin; competitor (Ab1, bound first): 11E6.

B1: 1B7 (antibody, V domains shown)
VH: QVQLQQPGSELVRPGASVKLSCKASGYKFTSYWMHWVKQRPGQGLEWIGNIFPGSGSTNYDEKFNSKATLTVDTSSNTAYMQLSSLTSEDSAVYYCTRWLSGAYFDYWGQGTTLTVSS
VL: QIVLTQSPALMSASPGEKVTMTCSASSSVSFMYWYQQKPRSSPKPWIYLTSNLPSGVPARFSGSGSGTSYSLTISSMEAEDAATYYCQQWSSHPPTFGSGTKLEIK
In the case of B1, the “Ab2 with Ab1/Ab2 without Ab1” value in experiment [1] came out at 1.1%. Also, in experiment [2], the “Minimum neutralizing concentration (CHO-K1 cells with PT toxin)” value was determined as 1.6 µg/mL. Moreover, in experiment [3], the Kd (commonly the free concentration of one partner at which half of the binding sites on the other are occupied at equilibrium, for simple one-to-one binding) is less than 1 pM; the dissociation rate constant (koff) (in general, a measure of how fast the partners let go of each other) was less than 1e-07 s⁻¹; the kon (as a rule, a measure of how fast the partners come together) came to 387000 M⁻¹ s⁻¹.

B2: 11E6 (antibody, V domains shown)
VH: EVKVVESGGGLVQPGGSLRLSCTTSGFTFTDYYVSWVRQPPGKALEWLGFIRNKVNGYTTEFSSSVKGRFTISRDNSQSILYLQMNTLRVEDSATYYCARVSYYGRGWYFDYWGQGTTLTVSS
VL: DIVMTQSTSSLSASLGDRVTISCRASQDIDNYLSWFQQKPDGTVKLLIYYTSRLHSGVPSRFSGSGSGTDYSLTISSLDQEDIATYFCQQGNTFPWTFGGGTKLEIK
For B2, the “Minimum neutralizing concentration (CHO-K1 cells with PT toxin)” value in experiment [2] turned out to be 0.8 µg/mL. In addition, the “Ab2 with Ab1/Ab2 without Ab1” value in experiment [4] came out at 0.2%. Besides, in experiment [3], the Kd was less than 1 pM, the off-rate (koff) is less than 1e-07 s⁻¹ and the kon was 311000 M⁻¹ s⁻¹.
